Key:
[1] = target: TSHR260-AP (human); assay: TSHR260-AP bridge ELISA (full length TSHR on wells, TSHR260-AP in solution); IgG 1 µg/mL diluted in assay buffer
[2] = target: TSHR260-alkaline phosphatase (TSHR260-AP) (human) (UniProt P05187); assay: TSHR260-AP bridge ELISA, full length TSHR on wells; 0.05 µg/mL, diluted in HBD
[3] = target: human TSH receptor (full length, wild type) expressed on CHO cells (human) (UniProt P16473); assay: cell-based or functional assay
[4] = target: human TSHR (thyroid stimulating hormone receptor) expressed in transfected CHO cells (human) (UniProt P16473); assay: cell-based or functional assay
[5] = target: human TSH receptor (full length, wild type) expressed in CHO cells (human) (UniProt P16473); assay: cell-based or functional assay
[6] = target: TSHR260-alkaline phosphatase (TSHR260-AP) (human) (UniProt P05187); assay: TSHR260-AP bridge ELISA, full length TSHR on wells; 250 µg/mL, diluted in assay buffer
[7] = target: TSHR260-AP (human); assay: TSHR260-AP bridge ELISA (full length TSHR on wells, TSHR260-AP in solution); IgG 0.05 µg/mL diluted in assay buffer
[8] = target: TSHR260-alkaline phosphatase (TSHR260-AP) (human) (UniProt P05187); assay: TSHR260-AP bridge ELISA, full length TSHR on wells; 1 µg/mL, diluted in HBD
[9] = target: TSHR260-AP (human); assay: TSHR260-AP bridge ELISA (full length TSHR on wells, TSHR260-AP in solution); IgG 0.05 µg/mL diluted in HBD serum
[10] = target: TSHR260-alkaline phosphatase (TSHR260-AP) (human) (UniProt P05187); assay: TSHR260-AP bridge ELISA, full length TSHR on wells; 0.1 µg/mL, diluted in HBD
[11] = target: TSHR260-AP (human); assay: TSHR260-AP bridge ELISA (full length TSHR on wells, TSHR260-AP in solution); IgG 10 µg/mL diluted in HBD serum
[12] = target: TSHR260-alkaline phosphatase (TSHR260-AP) (human) (UniProt P05187); assay: TSHR260-AP bridge ELISA, full length TSHR on wells; 100 µg/mL, diluted in HBD
[13] = target: TSHR260-alkaline phosphatase (TSHR260-AP) (human) (UniProt P05187); assay: TSHR260-AP bridge ELISA, full length TSHR on wells; 250 µg/mL, diluted in HBD
[14] = target: TSHR260-AP (human); assay: TSHR260-AP bridge ELISA (full length TSHR on wells, TSHR260-AP in solution); IgG 100 µg/mL diluted in HBD serum
[15] = target: TSHR260-alkaline phosphatase (TSHR260-AP) (human) (UniProt P05187); assay: TSHR260-AP bridge ELISA, full length TSHR on wells; 10 µg/mL, diluted in HBD
[16] = target: TSHR260-AP (human); assay: TSHR260-AP bridge ELISA (full length TSHR on wells, TSHR260-AP in solution); IgG 10 µg/mL diluted in assay buffer
[17] = target: TSHR260-AP (human); assay: TSHR260-AP bridge ELISA (full length TSHR on wells, TSHR260-AP in solution); IgG 0.01 µg/mL diluted in assay buffer

M22 IgG (antibody), sequence (VH): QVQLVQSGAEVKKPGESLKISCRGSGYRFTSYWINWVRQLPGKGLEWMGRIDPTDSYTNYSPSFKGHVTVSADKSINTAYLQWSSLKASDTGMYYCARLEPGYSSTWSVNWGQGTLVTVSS
M22 IgG (antibody), sequence (V domain): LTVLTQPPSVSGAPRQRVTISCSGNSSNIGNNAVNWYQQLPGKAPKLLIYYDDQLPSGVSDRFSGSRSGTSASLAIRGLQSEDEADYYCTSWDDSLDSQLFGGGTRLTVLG

Mean absorbance at 405 nm (absorbance at 405 nm) [1]: 0.821
Mean absorbance at 405 nm (absorbance at 405 nm) [2]: 0.204
Cyclic AMP concentration; 3 ng/mL M22 IgG alone [3]: 33.1 pmol/mL
Cyclic AMP concentration; 3 ng/mL M22 IgG [4]: 44.4 pmol/mL
Cyclic AMP concentration at 0.3 ng/mL M22 IgG [5]: 2.36 pmol/mL
Cyclic AMP concentration at 1 ng/mL M22 IgG [5]: 12 pmol/mL
Cyclic AMP concentration at 3 ng/mL M22 IgG [5]: 24.6 pmol/mL
Cyclic AMP concentration at 10 ng/mL M22 IgG [5]: 58.9 pmol/mL
Cyclic AMP production concentration at 1 ng/mL M22 IgG [5]: 8.1 pmol/mL
Cyclic AMP production concentration at 3 ng/mL M22 IgG [5]: 24.3 pmol/mL
Cyclic AMP production concentration at 10 ng/mL M22 IgG [5]: 50.3 pmol/mL
Cyclic AMP production concentration at 30 ng/mL M22 IgG [5]: 60.9 pmol/mL
Cyclic AMP production concentration at 100 ng/mL M22 IgG [5]: 64.6 pmol/mL
Cyclic AMP stimulating activity at 1 ng/mL M22 IgG, units/L (NIBSC 90/672) [5]: 0.3 units/L
Cyclic AMP stimulating activity at 1 ng/mL M22 IgG, units/mg (NIBSC 90/672) [5]: 300 units/mg
Cyclic AMP stimulating activity at 3 ng/mL M22 IgG, units/L (NIBSC 90/672) [5]: 0.8 units/L
Cyclic AMP stimulating activity at 3 ng/mL M22 IgG, units/mg (NIBSC 90/672) [5]: 267 units/mg
Cyclic AMP stimulating activity of M22 IgG, mean units/mg (NIBSC 90/672; mean of 1, 3 and 10 ng/mL) [5]: 286 units/mg
Mean absorbance at 405 nm (absorbance at 405 nm) [6]: 1.01
Mean absorbance at 405 nm (absorbance at 405 nm) [7]: 0.484
Mean absorbance at 405 nm (absorbance at 405 nm) [8]: 0.726
Mean absorbance at 405 nm (absorbance at 405 nm) [9]: 0.204
Mean absorbance at 405 nm (absorbance at 405 nm) [10]: 0.365
Mean absorbance at 405 nm (absorbance at 405 nm) [11]: 0.796
Mean absorbance at 405 nm (absorbance at 405 nm) [12]: 0.851
Mean absorbance at 405 nm (absorbance at 405 nm) [13]: 0.833
Mean absorbance at 405 nm (absorbance at 405 nm) [14]: 0.851
Mean absorbance at 405 nm (absorbance at 405 nm) [15]: 0.796
Mean absorbance at 405 nm (absorbance at 405 nm) [16]: 0.872
Mean absorbance at 405 nm (absorbance at 405 nm) [17]: 0.101
Substance: M22 IgG (antibody)

Source: patent US20110300138A1 (published 2011)
